# T1: PUF4 RNA-binding domain (Saccharomyces cerevisiae, UniProt P25339 537-888)
# T1 sequence: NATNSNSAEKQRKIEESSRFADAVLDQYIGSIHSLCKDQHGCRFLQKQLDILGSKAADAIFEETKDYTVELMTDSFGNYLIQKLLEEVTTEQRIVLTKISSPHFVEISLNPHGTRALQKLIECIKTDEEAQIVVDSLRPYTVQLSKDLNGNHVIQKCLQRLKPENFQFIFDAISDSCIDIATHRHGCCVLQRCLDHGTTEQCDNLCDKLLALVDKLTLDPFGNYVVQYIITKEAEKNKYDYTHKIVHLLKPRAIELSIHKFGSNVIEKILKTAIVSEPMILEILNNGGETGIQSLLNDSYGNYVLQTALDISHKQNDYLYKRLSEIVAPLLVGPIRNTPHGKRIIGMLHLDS
# Molecular target: T1, PUF4 RNA-binding domain
# Assay: Mg; RNA-MaP; 20 mM Na-HEPES pH 7.4, 30 mM KOAc, 0.75 mM MgCl2, 0.1% Tween-20, 5% glycerol, 0.1 mg/mL BSA, 2 mM DTT; 25 C; 0.0125-409.6 nM protein
# Conditions: tags: N-His6-TEV cleaved; C-SNAP kept, Cy3B-labelled; label: tethered on chip by stalled RNA polymerase
row,Binder,Kd [nM]
1,ACAAACACUAUAUAUACGACAAAC (ssRNA) [Id_ii_S3_P3E.3_K3.2_C3.2_[C-2A]_[T-1C]_H3.2_A3.1_F3.1_T3.2_[T9C]_[A10G]],1040
2,ACAAACUUUAUAUAUACAACAAAC (ssRNA) [Id_ii_S3_P3E.3_K3.2_C3.2_[C-2T]_H3.2_A3.1_F3.1_T3.2_[T9C]],925
3,ACAAACAGUAUAUAUACCACAAAC (ssRNA) [Id_ii_S3_P3E.3_K3.2_C3.2_[C-2A]_[T-1G]_H3.2_A3.1_F3.1_T3.2_[T9C]_[A10C]],1920
4,ACAAACGCUAUAUAUACUACAAAC (ssRNA) [Id_ii_S3_P3E.3_K3.2_C3.2_[C-2G]_[T-1C]_H3.2_A3.1_F3.1_T3.2_[T9C]_[A10T]],34.2
5,ACAAACGGUAUAUAUAUGACAAAC (ssRNA) [Id_ii_S3_P3E.3_K3.2_C3.2_[C-2G]_[T-1G]_H3.2_A3.1_F3.1_T3.2_[A10G]],552
6,ACAAACGGUAUAUAUAGAACAAAC (ssRNA) [Id_ii_S3_P3E.3_K3.2_C3.2_[C-2G]_[T-1G]_H3.2_A3.1_F3.1_T3.2_[T9G]],128
7,ACAAACUUUAUAUAUAACACAAAC (ssRNA) [Id_ii_S3_P3E.3_K3.2_C3.2_[C-2T]_H3.2_A3.1_F3.1_T3.2_[T9A]_[A10C]],522
8,ACAAACUCUAUAUAUAUCACAAAC (ssRNA) [Id_ii_S3_P3E.3_K3.2_C3.2_[C-2T]_[T-1C]_H3.2_A3.1_F3.1_T3.2_[A10C]],493
9,ACAAACGUUAUAUAUAAUACAAAC (ssRNA) [Id_ii_S3_P3E.3_K3.2_C3.2_[C-2G]_H3.2_A3.1_F3.1_T3.2_[T9A]_[A10T]],660
10,ACAAACUCUAUAUAUAAUACAAAC (ssRNA) [Id_ii_S3_P3E.3_K3.2_C3.2_[C-2T]_[T-1C]_H3.2_A3.1_F3.1_T3.2_[T9A]_[A10T]],72
11,ACAAACGAUAUAUAUAAAACAAAC (ssRNA) [Id_ii_S3_P3E.3_K3.2_C3.2_[C-2G]_[T-1A]_H3.2_A3.1_F3.1_T3.2_[T9A]],1080
12,UCUCUUUGUAUUGUCAUCUCUU (ssRNA) [Ib_S1_P5E.1_K5.1_C5.1_H5.1_A5.1_[A7G]_F5.1_[T9C]_T5.1],140
13,ACAAACGAUAUAUAUAGUACAAAC (ssRNA) [Id_ii_S3_P3E.3_K3.2_C3.2_[C-2G]_[T-1A]_H3.2_A3.1_F3.1_T3.2_[T9G]_[A10T]],62.3
14,ACAAACUCUAUAUAUAGCACAAAC (ssRNA) [Id_ii_S3_P3E.3_K3.2_C3.2_[C-2T]_[T-1C]_H3.2_A3.1_F3.1_T3.2_[T9G]_[A10C]],767
15,ACAAACUCUAUAUAUACCACAAAC (ssRNA) [Id_ii_S3_P3E.3_K3.2_C3.2_[C-2T]_[T-1C]_H3.2_A3.1_F3.1_T3.2_[T9C]_[A10C]],771
16,ACAAACGGUAUAUAUAACACAAAC (ssRNA) [Id_ii_S3_P3E.3_K3.2_C3.2_[C-2G]_[T-1G]_H3.2_A3.1_F3.1_T3.2_[T9A]_[A10C]],509
17,ACAAACGCUAUAUAUAUUACAAAC (ssRNA) [Id_ii_S3_P3E.3_K3.2_C3.2_[C-2G]_[T-1C]_H3.2_A3.1_F3.1_T3.2_[A10T]],45.1
18,ACAAACUCUAUAUAUAACACAAAC (ssRNA) [Id_ii_S3_P3E.3_K3.2_C3.2_[C-2T]_[T-1C]_H3.2_A3.1_F3.1_T3.2_[T9A]_[A10C]],599
19,ACAAACGAUAUAUAUAACACAAAC (ssRNA) [Id_ii_S3_P3E.3_K3.2_C3.2_[C-2G]_[T-1A]_H3.2_A3.1_F3.1_T3.2_[T9A]_[A10C]],969
20,UCUCUUUGUAUUCUGAUCUCUU (ssRNA) [Ib_S1_P5E.1_K5.1_C5.1_H5.1_A5.1_[A7C]_F5.1_[T9G]_T5.1],60.1
21,Id_ii_S2_P5E.4_K5.3_C5.2_[T-1A]_H5.3_A5.1_F5.1_T5.2 (ssRNA) RNA: UUUGAUUAAUAUGAUAUCGUUCUUUCUCAACACUUAUUAUAUUCUUUCUCGAUAUCAUAUUAAUCUUU,591
22,Id_ii_S2_P5E.4_K5.3_C5.2_H5.3_A5.1_F5.1_T5.2_[T11G]_[A12C] (ssRNA) RNA: UUUGAUUAAUAUGAUAUCGUUCUUUCUCUACACUUAUUAGCUUCUUUCUCGAUAUCAUAUUAAUCUUU,> 2300
23,Id_ii_S2_P5E.4_K5.3_C5.2_H5.3_A5.1_F5.1_T5.2_[A12C] (ssRNA) RNA: UUUGAUUAAUAUGAUAUCGUUCUUUCUCUACACUUAUUAUCUUCUUUCUCGAUAUCAUAUUAAUCUUU,> 2300
24,Id_ii_S2_P5E.4_K5.3_C5.2_H5.3_A5.1_F5.1_T5.2_[T11A]_[A12C] (ssRNA) RNA: UUUGAUUAAUAUGAUAUCGUUCUUUCUCUACACUUAUUAACUUCUUUCUCGAUAUCAUAUUAAUCUUU,> 2300
25,Id_ii_S2_P5E.4_K5.3_C5.2_H5.3_A5.1_F5.1_T5.2_[T11C] (ssRNA) RNA: UUUGAUUAAUAUGAUAUCGUUCUUUCUCUACACUUAUUACAUUCUUUCUCGAUAUCAUAUUAAUCUUU,> 2300
26,Id_ii_S2_P5E.4_K5.3_C5.2_H5.3_A5.1_F5.1_T5.2 (ssRNA) RNA: UUUGAUUAAUAUGAUAUCGUUCUUUCUCUACACUUAUUAUAUUCUUUCUCGAUAUCAUAUUAAUCUUU,548
27,Id_ii_S2_P5E.4_K5.3_C5.2_H5.3_A5.1_F5.1_T5.2_[T11A]_[A12T] (ssRNA) RNA: UUUGAUUAAUAUGAUAUCGUUCUUUCUCUACACUUAUUAAUUUCUUUCUCGAUAUCAUAUUAAUCUUU,> 2300
28,Id_ii_S2_P5E.4_K5.3_C5.2_H5.3_A5.1_F5.1_T5.2_[T11C]_[A12T] (ssRNA) RNA: UUUGAUUAAUAUGAUAUCGUUCUUUCUCUACACUUAUUACUUUCUUUCUCGAUAUCAUAUUAAUCUUU,> 2300
29,Id_ii_S2_P5E.4_K5.3_C5.2_H5.3_A5.1_F5.1_T5.2_[A12T] (ssRNA) RNA: UUUGAUUAAUAUGAUAUCGUUCUUUCUCUACACUUAUUAUUUUCUUUCUCGAUAUCAUAUUAAUCUUU,2240
30,Id_ii_S2_P5E.4_K5.3_C5.2_H5.3_A5.1_F5.1_T5.2_[T11C]_[A12C] (ssRNA) RNA: UUUGAUUAAUAUGAUAUCGUUCUUUCUCUACACUUAUUACCUUCUUUCUCGAUAUCAUAUUAAUCUUU,> 2300

# — publication PMC9352680, “A comprehensive thermodynamic model for RNA binding by the Saccharomyces cerevisiae Pumilio protein PUF4”
